Results from article PMC13483476 (2026).

Biological target: 5768-p27 V3 peptide (HIV-1 clade B isolate 5768-p27)
Assay: SPR

B1: 19b antigen-binding fragment (Fab) (Fab, V domains shown)
VH: EVQLVQSGGALIQPGGSLRLSCAASGFTFVDYAMSWVRQAPGKGLQWVSTIIGSGADTYYTDSVKGRFTISRDNSNNTVHLQMNSLRADDTALYYCVRGVFDLWGQGTLVTVSS
VL: DIVLTQSPPSLSASVGDRVTITCQASQDISDHLSWFQQKPGKAPKLLVYGVSSLEAGVPSRFSVSGSGTHFTFTVNGLQPEDLATYFCQQYDDLPWTFGPGTVVEVK
koff: 0.000147 s⁻¹
